Article doi:10.1101/2020.02.12.945170 (2020)
Square brackets hold non-standard residues; d marks the D form. Ends that are not written are not given here. * marks the point of attachment. Biotin = O=C1N[C@H]2[C@H](CS[C@H]2CCCCC(=O)*)N1; pY = N[C@@H](Cc1ccc(OP(=O)(O)O)cc1)C(=O)O

B1: ZAP70 tSH2-GFP (tandem SH2 domains of human ZAP70, amino acids 1-264, with C-terminal GFP) (domain or fragment)
chain: MPDPAAHLPFFYGSISRAEAEEHLKLAGMADGLFLLRQCLRSLGGYVLSLVHDVRFHHFPIERQLNGTYAIAGGKAHCGPAELCEFYSRDPDGLPCNLRKPCNRPSGLEPQPGVFDCLRDAMVRDYVRQTWKLEGEALEQAIISQAPQVEKLIATTAHERMPWYHSSLTREEAERKLYSGAQTDGKFLLRPRKEQGTYALSLIYGKTVYHYLISQDKAGKYCIPEGTKFDTLWQLVEYLKLKADGLIYCLKEACPNSSASNASG

Key:
[1] = molecular target: B1; experiment: SPR
[2] = molecular target: B1; experiment: SPR; 37°C
[3] = molecular target: T1, Avi-CD3ζ ITAM3 (full intracellular tail of CD3ζ, amino acids 52-164, all tyrosines mutated to Ala except the … (UniProt P20963-1 52-164, biotin on the Avitag; tyrosines of ITAM3 phosphorylated in vitro by Lck); experiment: SPR; phosphorylated on ITAM3; from kobs plot intercept
[4] = molecular target: T1, Avi-CD3ζ ITAM3 (full intracellular tail …); experiment: SPR; phosphorylated on ITAM3; dissociation phase fit
[5] = molecular target: B1; experiment: SPR; 37°C
[6] = molecular target: B1; experiment: SPR
[7] = molecular target: B1; experiment: single-particle tracking TIRF

T1 sequence (P20963 52-164, change not shown): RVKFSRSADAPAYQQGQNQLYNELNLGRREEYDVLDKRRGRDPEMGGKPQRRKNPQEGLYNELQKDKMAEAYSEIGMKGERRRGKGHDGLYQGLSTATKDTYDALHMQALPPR

Row | Binder | Kd [1] [µM] | Kd [2] [µM] | koff [3] [s⁻¹] | koff [4] [s⁻¹] | koff [5] [s⁻¹] | koff [6] [s⁻¹] | koff [7] [s⁻¹]
1 | Biotin-GKGHDLLYQGLSTATKDT[pY]DALHMQ [ITAM3 C (C-monophosphorylated CD3ζ ITAM3 peptide)] | 7.52 | 7.52 |  |  |  |  | 
2 | B1 |  |  | 0.21 | 0.25 |  |  | 
3 | Biotin-GKGHDLL[pY]QGLSTATKDTYDALHMQ [ITAM3 N (N-monophosphorylated CD3ζ ITAM3 peptide)] | 20.7 | 20.7 |  |  | 5.5 | 5.5 | 4.8
